# Numbering of substitutions follows the chain as printed. In names and notes the source's numbering stands.
# T1: Axl (Homo sapiens, UniProt P30530)
# T1 sequence (P30530 26-451 limits assumed): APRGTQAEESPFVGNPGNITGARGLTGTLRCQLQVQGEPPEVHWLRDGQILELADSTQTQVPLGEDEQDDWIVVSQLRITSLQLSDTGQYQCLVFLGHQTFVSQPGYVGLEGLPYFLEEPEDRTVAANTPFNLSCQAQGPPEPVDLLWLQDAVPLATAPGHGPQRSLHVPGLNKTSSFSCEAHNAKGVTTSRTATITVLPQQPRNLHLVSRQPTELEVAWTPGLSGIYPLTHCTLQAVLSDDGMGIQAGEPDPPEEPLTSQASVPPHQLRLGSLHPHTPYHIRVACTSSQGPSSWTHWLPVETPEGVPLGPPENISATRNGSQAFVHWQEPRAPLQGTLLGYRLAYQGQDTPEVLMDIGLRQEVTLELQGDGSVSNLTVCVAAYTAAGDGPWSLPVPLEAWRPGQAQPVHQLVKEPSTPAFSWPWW
# B1: LC-P095E (antibody, V domains shown)
# VH: EVQLVQSGAEVKKPGATVKISCKVSGYSFTGHTMNWIRQPPGKGLEWIGLIKPSNGGTSYNQKFKGRVTISADKSISTAYLQWSSLKASDTAMYYCAHGHYESYFAMDYWGQGTLVTVSS
# VL: DIQMTQSPSSLSASVGDRVTITCKASQDVSSAVAWYQQKPGQAPRLLIYWASTRHTGVPSRFSGSGSGTEFTLTISSLQPDDFATYYCQEHFSTELTFGQGTKVEIK
# B2: LC-H091I (antibody, V domains shown)
# VH: B1 VH
# VL: B1 VL with H91I, E95P
# B3: LC-P095H (antibody, V domains shown)
# VH: B1 VH
# VL: B1 VL with E95H
# B4: LC-H091L (antibody, V domains shown)
# VH: B1 VH
# VL: B1 VL with H91L, E95P
# B5: LC-P095K (antibody, V domains shown)
# VH: B1 VH
# VL: B1 VL with E95K
# B6: LC-H091Q (antibody, V domains shown)
# VH: B1 VH
# VL: B1 VL with H91Q, E95P
# B7: HC-S059I (antibody, V domains shown)
# VH: B1 VH with S59I
# VL: B1 VL with E95P
# B8: LC-P095S (antibody, V domains shown)
# VH: B1 VH
# VL: B1 VL with E95S
# B9: LC-L096G (antibody, V domains shown)
# VH: B1 VH
# VL: B1 VL with E95P, L96G
# B10: LC-P095T (antibody, V domains shown)
# VH: B1 VH
# VL: B1 VL with E95T
# B11: LC-L096R (antibody, V domains shown)
# VH: B1 VH
# VL: B1 VL with E95P, L96R
# B12: LC-P095V (antibody, V domains shown)
# VH: B1 VH
# VL: B1 VL with E95V
# B13: LC-T097I (antibody, V domains shown)
# VH: B1 VH
# VL: B1 VL with E95P, T97I
# B14: LC-P095W (antibody, V domains shown)
# VH: B1 VH
# VL: B1 VL with E95W
# B15: HC-E102V (antibody, V domains shown)
# VH: B1 VH with E102V
# VL: B1 VL with E95P
# B16: HC-S059T (antibody, V domains shown)
# VH: B1 VH with S59T
# VL: B1 VL with E95P
# B17: HC-E102Y (antibody, V domains shown)
# VH: B1 VH with E102Y
# VL: B1 VL with E95P
# B18: HC-H100R (antibody, V domains shown)
# VH: B1 VH with H100R
# VL: B1 VL with E95P
# B19: HC-S103D (antibody, V domains shown)
# VH: B1 VH with S103D
# VL: B1 VL with E95P
# B20: HC-H100D (antibody, V domains shown)
# VH: B1 VH with H100D
# VL: B1 VL with E95P
# B21: HC-E102L (antibody, V domains shown)
# VH: B1 VH with E102L
# VL: B1 VL with E95P
# Columns and labels:
# Axl [1] = molecular target: T1, Axl; assay: Affinity ELISA of CPE mutant antibodies for binding to Axl at pH 6.0 over pH 7.4; conditions: for Affinity ELISA CPE mutant ratio (1:3, pH 6.0/7.4): 1:3 dilution; for Affinity ELISA CPE mutant ratio (1:9, pH 6.0/7.4): 1:9 dilution
# Excerpt: The DNA encoding the wild-type antibody was evolved to generate a mutant antibody library using Comprehensive Positional Evolution (CPE), which each position in the template antibody is randomized one at a time. Each mutant antibody in the library has only one single point mutation. The mutant antibodies in the library were generated by simultaneously screening for selective binding affinity to Axl at pH 6.0 over pH 7.4 by ELISA. Two mutant antibody dilutions were used: 1:3 and 1:9 dilutions. The mutant antibodies that have at least 1.5 ratio of binding affinity at pH 6.0 to at pH 7.4 under either 1:3 or 1:9 dilution are selected as conditionally active antibodies, with the single point mutations indicated in each of the heavy chain and light chain variable region (Tables 1 and 2).
# A wild-type antibody to Axl was selected as the template antibody (with a heavy chain variable region of 063-hum10F10-HC in FIG. 1A and a light chain variable region of […]). The DNA encoding the wild-type antibody was evolved to generate a mutant antibody library using Comprehensive Positional Evolution (CPE), a method by which each position in the template antibody is randomized one at a time. Each mutant antibody in the library has only one single point mutation. The mutant antibodies in the library were generated by simultaneously screening for selective binding affinity to Axl at pH 6.0 over pH 7.4 as determined by ELISA.
# Simultaneously, the expression level of the mutant antibodies was also optimized for the purpose of higher fields in a manufacturing process. The screening was done in serum using a FLAG tag because there were human antibodies in the serum which might cause false positives for the screening. The screening buffer was a carbonate buffer (Krebs buffer with ringer-standard buffer but different from PBS). […] Some of the selected mutant antibodies (scFv) were represented in FIG. 2 with their higher activity at pH 6.0 than at pH 7.4, while their activity ratios between pH 6.0 to pH 7.4 were at least 11 fold (FIG. 3).
# Axl [2] = molecular target: Axl (UniProt P30530); assay: ELISA, 1:3 dilution
# Axl [3] = molecular target: Axl (UniProt P30530); assay: ELISA, 1:9 dilution
# [4] = light chain variable region mutants
# [5] = heavy chain variable region mutants
Molecule,"Affinity ELISA CPE mutant ratio (1:3, pH 6.0/7.4) (Axl [1]; [4])","Affinity ELISA CPE mutant ratio (1:9, pH 6.0/7.4) (Axl [1]; [4])","Affinity ELISA CPE mutant ratio (1:3, pH 6.0/7.4) (Axl [2])","Affinity ELISA CPE mutant ratio (1:9, pH 6.0/7.4) (Axl [3])","Affinity ELISA CPE mutant ratio (1:3, pH 6.0/7.4) (Axl [1]; [5])","Affinity ELISA CPE mutant ratio (1:9, pH 6.0/7.4) (Axl [1]; [5])"
B1,7.121,7.511,7.12,7.51,–,–
B2,1.550,2.154,1.55,2.15,–,–
B3,2.504,2.754,2.5,2.75,–,–
B4,2.798,2.081,2.8,2.08,–,–
B5,3.840,3.468,3.84,3.47,–,–
B6,1.770,2.010,1.77,2.01,–,–
B7,–,–,30.5,2.06,30.492,2.055
B8,2.841,3.512,2.84,3.51,–,–
B9,2.165,2.436,2.17,2.44,–,–
B10,2.497,2.086,2.5,2.09,–,–
B11,2.876,2.176,2.88,2.18,–,–
B12,1.871,2.132,1.87,2.13,–,–
B13,3.086,4.049,3.09,4.05,–,–
B14,2.148,2.263,2.15,2.26,–,–
B15,–,–,1.93,2.51,1.931,2.507
B16,–,–,1.02,1.93,1.021,1.926
B17,–,–,2.61,1.99,2.610,1.990
B18,–,–,1.88,2.51,1.877,2.507
B19,–,–,4.24,2.23,4.237,2.230
B20,–,–,2.42,3.09,2.416,3.094
B21,–,–,3.27,2.7,3.266,2.698

# From US20250276075A1, “METHODS OF TREATING AXL-EXPRESSING CANCERS WITH ANTI-AXL ANTIBODIES, ANTIBODY FRAGMENTS AND THEIR IMMUNOCONJUGATES” (BIOATLA, INC., priority 2020, published 2025)
